# Results taken from article PMC2953525, “Subtle Alterations in PCNA-Partner Interactions Severely Impair DNA Replication and Repair” (PLoS Biology, 2010).
# Numbering of substitutions follows the chain as printed.
# B1: pol30-Rad27E31: PCNA mutant evolved for Rad27, IDCL sequence DGDYDVLKIREL (protein)
# chain: MLEAKFEEASLFKRIIDGFKDCVQLVNFQCKEDGIIAQAVDDSRVLLVSLEIGVEAFQEYRCDHPVTLGMDLTSLSKILRCGNNTDTLTLIADNTPDSIILLFEDTKKDRIAEYSLKLMDGDYDVLKIRELQYDSTLSLPSSEFSKIVRDLSQLSDSINIMITKETIKFVADGDIGSGSVIIKPFVDMEHPETSIKLEMDQPVDLTFGAKYLLDIIKGSSLSDRVGIRLSSEAPALFQFDLKSGFLQFFLAPKFNDEE
# modifications: left off: Gal4 activation domain, end not stated, kept
# B2: pol30-Rad27L1: PCNA mutant evolved for Rad27, two-residue deletion, IDCL sequence D––VDILKIGEL (protein)
# chain: MLEAKFEEASLFKRIIDGFKDCVQLVNFQCKEDGIIAQAVDDSRVLLVSLEIGVEAFQEYRCDHPVTLGMDLTSLSKILRCGNNTDTLTLIADNTPDSIILLFEDTKKDRIAEYSLKLMDVDILKIGELQYDSTLSLPSSEFSKIVRDLSQLSDSINIMITKETIKFVADGDIGSGSVIIKPFVDMEHPETSIKLEMDQPVDLTFGAKYLLDIIKGSSLSDRVGIRLSSEAPALFQFDLKSGFLQFFLAPKFNDEE
# modifications: left off: Gal4 activation domain, end not stated, kept
# B3: pol30-Rad27L2: PCNA mutant evolved for Rad27, two-residue deletion, IDCL sequence D––VDTLKITEL (protein)
# chain: B2 chain with I123T, G127T
# modifications: left off: Gal4 activation domain, end not stated, kept
# How the values were obtained:
# Msh6 = assay: Yeast two hybrid (Y2H) analysis of PCNA-partner interaction; type: binding; conditions: YRG2 strain, growth on selective agar plates lacking histidine; growth similar to WT PCNA denoted as 1
# Protocol: (§1) For the Y2H assay, we used the YRG2 host strain, shown to be highly efficient in coupling the strength of protein-protein interactions with growth on media lacking histidine. Selected PCNA mutants were characterized for their ability to bind each of 12 main PCNA partners to obtain specificity profiles (Table 1, Table S1, and Figures S4–S5). […] However, in some cases a strong trade-off between the bindings of different partners was observed.
# (§2) Y2H analysis was performed using the Yeast Two Hybrid Phagemid vector kit (Stratagene), following the manufacturer's instructions. The pAD-PCNA-WT/mutant plasmids were used as bait while plasmids encoding 12 different PCNA partners (Table 1 and Table S1) were used as prey. The YRG2 host strain (Stratagene) was cotransformed with pAD-PCNA WT/mutant and pBD-partner plasmids in all possible combinations using the LiAC method. Single transformants were grown in liquid SC-Leu-Trp to O.D600 10, washed twice with DDW, and diluted to an initial OD600 of 0.3. A series of 10-fold serial dilutions was then spotted onto selective SC-Leu-Trp-His plates and incubated at 30°C for 3 d. For quantitative Y2H, the generation time of the indicated mutants and their respective partners were calculated from their growth curves in liquid SC-Leu-Trp-His media. Cells were grown overnight in SC-Leu-Trp, washed twice with ddH2O, and diluted by a factor of 1∶50 into 10 ml of pre-warmed SC-Leu-Trp-His. O.D600 measurements of the cultures were taken at the indicated time; the generation time (τ) was calculated from the growth curves according to the equation ODt = OD0×2^t/τ. The generation time calculated for each culture is an average of at least 3 independent experiments.
# Pol32 = assay: as above; type: binding; conditions: YRG2 strain, growth on selective agar plates lacking histidine; growth similar to WT PCNA denoted as 1
# Protocol: as §1, §2
# Rad27 = assay: as above; type: binding; conditions: footnote c: generation time in liquid selective media lacking histidine relative to cells expressing WT PCNA; average of at least 3 independent experiments
# Protocol: as §1, §2
# Rad30 = assay: as above; type: binding; conditions: YRG2 strain, growth on selective agar plates lacking histidine; growth similar to WT PCNA denoted as 1
# Protocol: as §1, §2
# Ung1 = assay: as above; type: binding; conditions: YRG2 strain, growth on selective agar plates lacking histidine; growth similar to WT PCNA denoted as 1
# Protocol: as §1, §2
# Apn2 = assay: as above; type: binding; set-up: key: ++: major increase in growth; +: moderate increase in growth; similar growth as the WT PCNA-expressing cells; -: minor decrease in growth; --: moderate decrease in growth; ---: major decrease in growth; conditions: spotting onto selective agar plates; PCNA fused to AD, partner to BD
# Protocol: as §2
# (§3) Table S1: Yeast two hybrid analysis of binding of selected PCNA mutants with seven additional partners not described in Table 1 of the main text. […]
# (§4) pol30-Rad30E2 WT WT WT WT WT WT - pol30-Rad30E9 WT WT WT WT WT WT WT pol30-Rad27E6 WT WT WT WT + WT WT pol30-Rad27E31 WT WT WT WT + WT WT pol30-Rad27L1 WT -- WT WT -- WT WT pol30-Rad27L2 WT -- WT WT -- WT WT pol30-Pol32E5 WT WT WT WT WT WT WT pol30-Pol32E9 - WT WT WT WT WT WT pol30-Msh6E2 WT WT + WT WT WT WT pol30-Msh6E6 WT WT ++ WT WT WT WT pol30-Ung1E3 WT - WT WT WT WT WT pol30-79 --- --- --- - --- --- --- a PCNA mutants with enhanced affinities for the different target partners (see Table 1, text). b PCNA mutants were fused to the activating domain (AD), while the different partners were fused to the DNA-binding domain (BD). The growth of the resulting Y2H strains was compared to the growth of the WT PCNA-expressing strain following spotting onto selective agar plates (see Material and Methods). Growth rates on the agar plates were scored and tabulated as follows: ++ major increase in growth; + moderate increase in growth; WT-similar growth as the WT PCNA-expressing cells; - minor decrease in growth; -- moderate decrease in growth; --- major decrease in growth. ND-Not determined.
# Cac1 = assay: as above; type: binding; set-up: key: ++: major increase in growth; +: moderate increase in growth; similar growth as the WT PCNA-expressing cells; -: minor decrease in growth; --: moderate decrease in growth; ---: major decrease in growth; conditions: spotting onto selective agar plates; PCNA fused to AD, partner to BD
# Protocol: as §2, §3, §4
# Cdc9 = assay: as above; type: binding; set-up: key: ++: major increase in growth; +: moderate increase in growth; similar growth as the WT PCNA-expressing cells; -: minor decrease in growth; --: moderate decrease in growth; ---: major decrease in growth; conditions: spotting onto selective agar plates; PCNA fused to AD, partner to BD
# Protocol: as §2, §3, §4
# Eco1 = assay: as above; type: binding; set-up: key: ++: major increase in growth; +: moderate increase in growth; similar growth as the WT PCNA-expressing cells; -: minor decrease in growth; --: moderate decrease in growth; ---: major decrease in growth; conditions: spotting onto selective agar plates; PCNA fused to AD, partner to BD
# Protocol: as §2, §3, §4
# Msh3 = assay: as above; type: binding; set-up: key: ++: major increase in growth; +: moderate increase in growth; similar growth as the WT PCNA-expressing cells; -: minor decrease in growth; --: moderate decrease in growth; ---: major decrease in growth; conditions: spotting onto selective agar plates; PCNA fused to AD, partner to BD
# Protocol: as §2, §3, §4
# Rfc1 = assay: as above; type: binding; set-up: key: ++: major increase in growth; +: moderate increase in growth; similar growth as the WT PCNA-expressing cells; -: minor decrease in growth; --: moderate decrease in growth; ---: major decrease in growth; conditions: spotting onto selective agar plates; PCNA fused to AD, partner to BD
# Protocol: as §2, §3, §4
# Rrm3 = assay: as above; type: binding; set-up: key: ++: major increase in growth; +: moderate increase in growth; similar growth as the WT PCNA-expressing cells; -: minor decrease in growth; --: moderate decrease in growth; ---: major decrease in growth; conditions: spotting onto selective agar plates; PCNA fused to AD, partner to BD
# Protocol: as §2, §3, §4
# yeast strains = assay: Viability of haploid strains with mutant as sole source of PCNA (plasmid shuffling, 5FOA); type: cell-based; conditions: for viability of strain containing the mutant as the sole source of PCNA: plasmid shuffling, selection on 5FOA; for effect of rad27 deletion on lethality of the mutant strain: rad27-deleted background, 5-FOA
# Source text: To study the in vivo ability of PCNA mutants to promote DNA replication and repair in yeast, we adopted a plasmid shuffling method to create haploid yeast strains carrying each mutant as the sole source of PCNA (see Materials and Methods). This approach allowed us to identify PCNA mutants leading to cell death, indicating their inability to support essential DNA replication processes (Figure 5A). […] To verify that the replication defects in the mutant strains (Figure 5) are not due to reduced expression levels of the PCNA proteins, we confirmed the expression level of PCNA using western blot analysis and observed similar expression levels of all PCNA mutants, relative to WT PCNA (Figure S7).
# Figure 5 In vivo phenotypic analysis of PCNA mutants. (A) Non-viable strains containing PCNA mutants with increased binding affinity for Rad27 as the sole version of PCNA. Yeast strains containing WT PCNA expressed from a URA3 plasmid and mutant PCNA genes expressed from a LEU2 plasmid are viable (middle). Upon selection for loss of WT PCNA using 5-floororotic acid (5FOA), PCNA mutant strains are non-viable (right). (B) MMS (middle) and HU (right) sensitivity of strains containing PCNA mutants with increased binding affinity for Rad27, Pol32, Rad30, Msh6, and Ung1 and strains containing WT PCNA in which the same partners were deleted. For binding characterization and sequences of the mutants, see Table 1.
# Novel haploids containing PCNA mutants were generated using the plasmid shuffling method. Briefly, a pol30::KanMX magic marker heterozygote diploid strain BY4743 (Open Biosystem) was transformed with plasmid pRS316-POL30. Following dissection of the diploid, a haploid containing the CAN+ gene and plasmid pRS316-POL30 as a sole source of PCNA was generated. This host strain was transformed with selected pRS315-pol30 mutants, plated on SC-Ura-Leu plates, followed by replica plating to SC-Leu+5FOA plates. Haploids, containing PCNA mutants as a sole source, were further verified by plating on either SC-Leu or SC-Ura plates. For testing selected PCNA mutants, a haploid containing rad27::HYG, rad30::HYG, pol32::HYG, msh6::HYG, or ung1::HYG were generated using plasmid pAG32 by conventional genetic approaches. Growth of the PCNA mutant strains in the presence of 120 mM HU (Toronto Research Chemicals) or 0.02% MMS (Sigma) was performed as described. To examine the effects of partner overexpression on pol30 mutant strains, these strains were transformed with various plasmids containing GST-tagged PCNA partner encoding genes under the control of a GAL1/10 inducible promoter, as previously described. Overnight cultures were plated in serial dilutions on SC-Ura containing either glucose or galactose with or without DNA-damaging agents, as described above.
Molecule,Binding of PCNA Mutants to Target Partners: Msh6 (Y2H) (Msh6),Binding of PCNA Mutants to Target Partners: Pol32 (Y2H) (Pol32),"Binding of PCNA Mutants to Target Partners: Rad27, fold increase or decrease (quantitative Y2H) (Rad27)",Binding of PCNA Mutants to Target Partners: Rad30 (Y2H) (Rad30),Binding of PCNA Mutants to Target Partners: Ung1 (Y2H) (Ung1),Y2H growth relative to WT PCNA-expressing strain: Apn2 (Apn2),Y2H growth relative to WT PCNA-expressing strain: Cac1 (Cac1),Y2H growth relative to WT PCNA-expressing strain: Cdc9 (Cdc9),Y2H growth relative to WT PCNA-expressing strain: Eco1 (Eco1),Y2H growth relative to WT PCNA-expressing strain: Msh3 (Msh3),Y2H growth relative to WT PCNA-expressing strain: Rfc1 (Rfc1),Y2H growth relative to WT PCNA-expressing strain: Rrm3 (Rrm3),viability of strain containing the mutant as the sole source of PCNA (yeast strains),effect of rad27 deletion on lethality of the mutant strain (yeast strains)
B1,1,1,1.5 ^c fold,1,1,WT,+,WT,WT,WT,WT,WT,,
B2,1,1,1.7 ^c fold,,1,WT,--,WT,--,WT,WT,WT,lethality,suppressed the lethality
B3,1,1,1.5 ^c fold,,1,WT,--,WT,--,WT,WT,WT,lethality,suppressed the lethality
